Drawing on patent US20030143656A1, this text covers fold decrease in affinity for PIFtide and activation of p70 S6K on cotransfection with GST-F977A-PIF for 2 substances.

The target in one test is PIFtide (human). Nature of the test: method not stated (reference mark lost).
For test [1], the target named is endogenous PDK1 (293 cells) (human) (UniProt O15530). Nature of the test: cell-based or functional assay.
Chain of endogenous PDK1 (293 cells) (human) (O15530 whole entry): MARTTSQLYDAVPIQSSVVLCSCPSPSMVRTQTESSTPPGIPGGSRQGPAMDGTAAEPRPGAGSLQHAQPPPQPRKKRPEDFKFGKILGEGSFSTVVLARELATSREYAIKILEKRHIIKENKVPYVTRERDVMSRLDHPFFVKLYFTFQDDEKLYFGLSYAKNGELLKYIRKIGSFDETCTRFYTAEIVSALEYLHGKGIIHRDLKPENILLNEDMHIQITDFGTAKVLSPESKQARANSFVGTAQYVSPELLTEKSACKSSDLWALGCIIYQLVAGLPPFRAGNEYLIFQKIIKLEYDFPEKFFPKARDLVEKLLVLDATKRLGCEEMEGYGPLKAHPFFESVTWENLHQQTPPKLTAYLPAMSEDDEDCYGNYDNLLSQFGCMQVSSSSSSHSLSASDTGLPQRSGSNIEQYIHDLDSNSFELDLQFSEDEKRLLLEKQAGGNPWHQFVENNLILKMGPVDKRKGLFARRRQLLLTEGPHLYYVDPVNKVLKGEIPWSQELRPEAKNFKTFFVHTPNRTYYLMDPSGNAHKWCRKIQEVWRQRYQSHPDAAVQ

Chain of PIFtide (human) (peptide, as listed by the source): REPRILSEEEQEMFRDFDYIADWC

With “GST-PDK1 I119A (from UniProt O15530 1-556) (enzyme)”, in the test with PIFtide (human), the fold decrease in affinity for PIFtide amounted to 10 fold.

In test [1], “GST-F977A-PIF (from UniProt Q16513 908-984)” displayed an activation of p70 S6K on cotransfection with GST-F977A-PIF of 50%.
